The values that follow come from paper doi:10.1101/2021.06.07.447473.

The experiment has as its target eIF2B(αβδγε)2 decamer, eIF2Bβ Avi-tagged and biotinylated (human) (UniProt Q14232). As to the kind of experiment: SPR. Background: In SPR one partner is held on a chip, and binding of the other changes the refractive index at the surface.

For orientation: Kd means a measure of binding affinity in units of concentration. Low values mean a tighter complex, high ones a looser complex. With “Sandfly Fever Sicilian virus (SFSV) NSs protein with C-terminal 6xHIS tag (NSs::6xHIS) (natural protein)”, the Kd came out at 43 nM. This counts as double-digit nanomolar.
